To fix the notation:
B1: Intersectin-1, residues 909 to 971; numbered along this chain, Q15811 (parent)
chain: QGEKVEGLQAQALYPWRAKKDNHLNFNKNDVITVLEQQDMWWFGEVQGQKGWFPKSYVKLISG

± gives the uncertainty stated by the source.

The data set covers variants of B1. The experiment in a line: abundance fitness (aPCA) (normalised: wild type 0, dead -1); higher = more abundant; growth selection in yeast, the domain comes from the species named. As to conditions: Homo sapiens.
Regarding QGEKVEGLQAQALYPWRAKKDNHLNFNKNDVITVLGQQDMWWFGEVQGQKGWFPKSYVKLISG [E36G], the abundance fitness is -0.076 ± 0.093.
The result for QGEKVEGLQAQALYPWRAKKDNHLNFNKNDVITVLWQQDMWWFGEVQGQKGWFPKSYVKLISG [E36W] reads -0.117 ± 0.12; that for QGEKVEGLQAQALYPWRAKKDNHLNFNKNDVITVLYQQDMWWFGEVQGQKGWFPKSYVKLISG [E36Y], -0.279 ± 0.24.
With QGEKVEGLQAQALYPWRAKKDNHLNFNKNDVITVLRQQDMWWFGEVQGQKGWFPKSYVKLISG [E36R], the abundance fitness is -0.147 ± 0.12.
The result for QGEKVEGLQAQALYPWRAKKDNHLNFNKNDVITVLVQQDMWWFGEVQGQKGWFPKSYVKLISG [E36V] reads -0.044 ± 0.2; that for QGEKVEGLQAQALYPWRAKKDNHLNFNKNDVITVLKQQDMWWFGEVQGQKGWFPKSYVKLISG [E36K], 0.017 ± 0.26.
The result for QGEKVEGLQAQALYPWRAKKDNHLNFNKNDVITVLQQQDMWWFGEVQGQKGWFPKSYVKLISG [E36Q] reads -0.344 ± 0.34; that for QGEKVEGLQAQALYPWRAKKDNHLNFNKNDVITVLTQQDMWWFGEVQGQKGWFPKSYVKLISG [E36T], -0.149 ± 0.18.
The result for QGEKVEGLQAQALYPWRAKKDNHLNFNKNDVITVLHQQDMWWFGEVQGQKGWFPKSYVKLISG [E36H] reads -0.235 ± 0.2; that for QGEKVEGLQAQALYPWRAKKDNHLNFNKNDVITVLLQQDMWWFGEVQGQKGWFPKSYVKLISG [E36L], -0.094 ± 0.17; that for QGEKVEGLQAQALYPWRAKKDNHLNFNKNDVITVLMQQDMWWFGEVQGQKGWFPKSYVKLISG [E36M], -0.177 ± 0.22.
Consider QGEKVEGLQAQALYPWRAKKDNHLNFNKNDVITVLEQQDMHWFGEVQGQKGWFPKSYVKLISG [W41H], for which the abundance fitness is -0.36 ± 0.2.
On to QGEKVEGLQAQALYPWRAKKDNHLNFNKNDVITVLEQQDMLWFGEVQGQKGWFPKSYVKLISG [W41L], for which the abundance fitness was -0.252 ± 0.089.
Consider QGEKVEGLQAQALYPWRAKKDNHLNFNKNDVITVLEQQDMKWFGEVQGQKGWFPKSYVKLISG [W41K], for which the abundance fitness is -0.427 ± 0.31.
For the variant QGEKVEGLQAQALYPWRAKKDNHLNFNKNDVITVLEQQDMEWFGEVQGQKGWFPKSYVKLISG [W41E], the abundance fitness is -0.59 ± 0.17.
The result for QGEKVEGLQAQALYPWRAKKDNHLNFNKNDVITVLEQQDMDWFGEVQGQKGWFPKSYVKLISG [W41D] reads -0.245 ± 0.13.
The result for QGEKVEGLQAQALYPWRAKKDNHLNFNKNDVITVLEQQDMMWFGEVQGQKGWFPKSYVKLISG [W41M] reads -0.071 ± 0.085.
Take QGEKVEGLQAQALYPWRAKKDNHLNFNKNDVITVLEQQDMCWFGEVQGQKGWFPKSYVKLISG [W41C]: the abundance fitness was -0.318 ± 0.096.
Consider QGEKVEGLQAQALYPWRAKKDNHLNFNKNDVITVLEQQDMIWFGEVQGQKGWFPKSYVKLISG [W41I], for which the abundance fitness was -0.815 ± 0.45.
The result for QGEKVEGLQAQALYPWRAKKDNHLNFNKNDVITVLEQQDMFWFGEVQGQKGWFPKSYVKLISG [W41F] reads -0.238 ± 0.18; that for QGEKVEGLQAQALYPWRAKKDNHLNFNKNDVITVLEQQDMAWFGEVQGQKGWFPKSYVKLISG [W41A], -0.489 ± 0.13.
The result for QGEKVEGLQAQALYPWRAKKDNHLNFNKNDVITVLEQQDMGWFGEVQGQKGWFPKSYVKLISG [W41G] reads -0.78 ± 0.28; that for QGEKVEGLQAQALYPWRAKKDNHLNFNKNDVITVLEQRDMWWFGEVQGQKGWFPKSYVKLISG [Q38R], 0.029 ± 0.12; that for QGEKVEGLQAQALYPWRAKKDNHLNFNKNDVITVLEQFDMWWFGEVQGQKGWFPKSYVKLISG [Q38F], -0.423 ± 0.24.
For QGEKVEGLQAQALYPWRAKKDNHLNFNKNDVITVLEQADMWWFGEVQGQKGWFPKSYVKLISG [Q38A], the abundance fitness was -0.463 ± 0.2.
As to QGEKVEGLQAQALYPWRAKKDNHLNFNKNDVITVLEQWDMWWFGEVQGQKGWFPKSYVKLISG [Q38W], the abundance fitness is -0.286 ± 0.15.
The result for QGEKVEGLQAQALYPWRAKKDNHLNFNKNDVITVLEQPDMWWFGEVQGQKGWFPKSYVKLISG [Q38P] reads -0.313 ± 0.16; that for QGEKVEGLQAQALYPWRAKKDNHLNFNKNDVITVLEQVDMWWFGEVQGQKGWFPKSYVKLISG [Q38V], -0.302 ± 0.12.
As for QGEKVEGLQAQALYPWRAKKDNHLNFNKNDVITVLEQEDMWWFGEVQGQKGWFPKSYVKLISG [Q38E], the abundance fitness worked out at 0.008 ± 0.16.
On to QGEKVEGLQAQALYPWRAKKDNHLNFNKNDVITVLEQSDMWWFGEVQGQKGWFPKSYVKLISG [Q38S], for which the abundance fitness is -0.148 ± 0.16.
The result for QGEKVEGLQAQALYPWRAKKDNHLNFNKNDVITVLEQMDMWWFGEVQGQKGWFPKSYVKLISG [Q38M] reads -0.061 ± 0.16; that for QGEKVEGLQAQALYPWRAKKDNHLNFNKNDVITVLEQGDMWWFGEVQGQKGWFPKSYVKLISG [Q38G], 0.026 ± 0.079.
The result for QGEKVEGLQAQALYPWRAKKDNHLNFNKNDVITVLEQLDMWWFGEVQGQKGWFPKSYVKLISG [Q38L] reads -0.056 ± 0.21; that for QGEKVEGLQAQALYPWRAKKDNHLNFNKNDVITVLEQKDMWWFGEVQGQKGWFPKSYVKLISG [Q38K], -0.173 ± 0.17; that for QGEKVEGLQAQALYPWRAKKDNHLNFNKNDVITVLEQCDMWWFGEVQGQKGWFPKSYVKLISG [Q38C], -0.04 ± 0.18.
QGEKVEGLQAQALYPWRAKKDNHLNFNKNDVITVLEQQDWWWFGEVQGQKGWFPKSYVKLISG [M40W]: the abundance fitness was -0.475 ± 0.22.
The result for QGEKVEGLQAQALYPWRAKKDNHLNFNKNDVITVLEQQDNWWFGEVQGQKGWFPKSYVKLISG [M40N] reads 0.121 ± 0.17; that for QGEKVEGLQAQALYPWRAKKDNHLNFNKNDVITVLEQQDGWWFGEVQGQKGWFPKSYVKLISG [M40G], -0.109 ± 0.11.
The result for QGEKVEGLQAQALYPWRAKKDNHLNFNKNDVITVLEQQDYWWFGEVQGQKGWFPKSYVKLISG [M40Y] reads -0.344 ± 0.26; that for QGEKVEGLQAQALYPWRAKKDNHLNFNKNDVITVLEQQDAWWFGEVQGQKGWFPKSYVKLISG [M40A], -0.083 ± 0.09; that for QGEKVEGLQAQALYPWRAKKDNHLNFNKNDVITVLEQQDKWWFGEVQGQKGWFPKSYVKLISG [M40K], 0.144 ± 0.22.
The result for QGEKVEGLQAQALYPWRAKKDNHLNFNKNDVITVLEQQDQWWFGEVQGQKGWFPKSYVKLISG [M40Q] reads 0.052 ± 0.34.
